The results in this text go back to the supplement of paper PMC5998384.

In data set [1] the test system is HeLa Kyoto. Kind of data set: solubility in G1/S (NP-40 vs SDS abundance) (log2 ratio); higher = more soluble. Conditions: cell cycle stage: G1/S.
In data set [2] the test system is HeLa Kyoto. Put plainly: melting temperature (median over replicates), in situ; higher = more thermally stable.
Data set [3] deals with HeLa Kyoto. Kind of data set: solubility change mitosis vs G1/S (difference of NP-40 vs SDS log2 ratios) (log2 ratio difference); higher = more soluble in mitosis.
Data set [4] deals with HeLa Kyoto. Put plainly: thermal stability score vs G1/S (z-score of summed log2 fold changes over temperatures); higher = more thermally stable than in G1/S.
Where [5] appears, read: cell cycle stage: early G1 (4.5 h after nocodazole release).
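Throughout, for melting temperature (median over replicates), in situ: HeLa Kyoto cells synchronized by double thymidine or nocodazole block, proteins quantified by TMT10plex mass spectrometry, three independent biological replicates.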
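Throughout, for solubility change mitosis vs G1/S (difference of NP-40 vs SDS log2 ratios): synchronized HeLa Kyoto cells (double thymidine block for G1/S, nocodazole release for mitosis), protein amounts in NP-40 versus SDS lysates quantified by mass spectrometry, three biological replicates.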
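Throughout, for solubility in G1/S (NP-40 vs SDS abundance): HeLa Kyoto cells arrested at G1/S by double thymidine block, proteins quantified by TMT10plex mass spectrometry in mild NP-40 versus SDS extracts, three biological replicates.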
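Throughout, for thermal stability score vs G1/S (z-score of summed log2 fold changes over temperatures): synchronized HeLa Kyoto cells, proteins quantified by TMT10plex mass spectrometry, three biological replicates, mitosis taken 0.5 h after nocodazole release, G1/S directly after double thymidine block.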

Take “MAELGAGGDGHRGGDGAVRSETAPDSYKVQDKKNASSRPASAISGQNNNHSGNKPDPPPVLRVDDRQRLARERREEREKQLAAREIVWLEREERARQHYEKHLEERKKRLEEQRQKEERRRAAVEEKRRQRLEEDKERHEAVVRRTMERSQKPKQKHNRWSWGGSLHGSPSIHSADPDRRSVSTMNLSKYVDPVISKRLSSSSATLLNSPDRARRLQLSPWESSVVNRLLTPTHSFLARSKSTAALSGEAASCSPIIMPYKAAHSRNSMDRPKLFVTPPEGSSRRRIIHGTASYKKERERENVLFLTSGTRRAVSPSNPKARQPARSRLWLPSKSLPHLPGTPRPTSSLPPGSVKAAPAQVRPPSPGNIRPVKREVKVEPEKKDPEKEPQKVANEPSLKGRAPLVKVEEATVEERTPAEPEVGPAAPAMAPAPASAPAPASAPAPAPVPTPAMVSAPSSTVNASASVKTSAGTTDPEEATRLLAEKRRLAREQREKEERERREQEELERQKREELAQRVAEERTTRREEESRRLEAEQAREKEEQLQRQAEERALREREEAERAQRQKEEEARVREEAERVRQEREKHFQREEQERLERKKRLEEIMKRTRRTEATDKKTSDQRNGDIAKGALTGGTEVSALPCTTNAPGNGKPVGSPHVVTSHQSKVTVESTPDLEKQPNENGVSVQNENFEEIINLPIGSKPSRLDVTNSESPEIPLNPILAFDDEGTLGPLPQVDGVQTQQTAEVI [MAP7]”: in the data set on HeLa Kyoto [1], the “solubility in G1/S (log2)” value is -0.661. The melting temperature was 54.3 °C with HeLa Kyoto [2] (cell cycle stage: G1/S) and 52.1 °C in the data set on HeLa Kyoto [2] (cell cycle stage: mitosis). The “solubility change mitosis (log2)” value in the data set on HeLa Kyoto [3] turned out to be 0.704. Besides, the thermal stability score was -5.44 in the data set on HeLa Kyoto [4] (setting [5]) and -8.57 with HeLa Kyoto [4] (cell cycle stage: mitosis).
As for “MAELQMLLEEEIPSGKRALIESYQNLTRVADYCENNYIQATDKRKALEETKAYTTQSLASVAYQINALANNVLQLLDIQASQLRRMESSINHISQTVDIHKEKVARREIGILTTNKNTSRTHKIIAPANMERPVRYIRKPIDYTVLDDVGHGVKWLKAKHGNNQPARTGTLSRTNPPTQKPPSPPMSGRGTLGRNTPYKTLEPVKPPTVPNDYMTSPARLGSQHSPGRTASLNQRPRTHSGSSGGSGSRENSGSSSIGIPIAVPTPSPPTIGPENISVPPPSGAPPAPPLAPLLPVSTVIAAPGSAPGSQYGTMTRQISRHNSTTSSTSSGGYRRTPSVTAQFSAQPHVNGGPLYSQNSISIAPPPPPMPQLTPQIPLTGFVARVQENIADSPTPPPPPPPDDIPMFDDSPPPPPPPPVDYEDEEAAVVQYNDPYADGDPAWAPKNYIEKVVAIYDYTKDKDDELSFMEGAIIYVIKKNDDGWYEGVCNRVTGLFPGNYVESIMHYTD [ABI1]”, the “solubility in G1/S (log2)” value with HeLa Kyoto [1] was 0.313. The melting temperature with HeLa Kyoto [2] (cell cycle stage: G1/S) was found to be 51.1 °C; with HeLa Kyoto [2] (cell cycle stage: mitosis) it was 51.4 °C. In addition, in the data set on HeLa Kyoto [3], the “solubility change mitosis (log2)” value is -0.104. Moreover, the thermal stability score in the data set with HeLa Kyoto [4] (setting [5]) was -0.724; in the data set with HeLa Kyoto [4] (cell cycle stage: mitosis) it was -0.695.
As for “MAELRVLVAVKRVIDYAVKIRVKPDRTGVVTDGVKHSMNPFCEIAVEEAVRLKEKKLVKEVIAVSCGPAQCQETIRTALAMGADRGIHVEVPPAEAERLGPLQVARVLAKLAEKEKVDLVLLGKQAIDDDCNQTGQMTAGFLDWPQGTFASQVTLEGDKLKVEREIDGGLETLRLKLPAVVTADLRLNEPRYATLPNIMKAKKKKIEVIKPGDLGVDLTSKLSVISVEDPPQRTAGVKVETTEDLVAKLKEIGRI [ETFB]”, in the data set on HeLa Kyoto [1], the “solubility in G1/S (log2)” value amounted to 0.362. Besides, the melting temperature came out at 54 °C in the data set with HeLa Kyoto [2] (cell cycle stage: G1/S) and 54.2 °C with HeLa Kyoto [2] (cell cycle stage: mitosis). The “solubility change mitosis (log2)” value in the data set with HeLa Kyoto [3] turned out to be 0.0272. Also, the thermal stability score was -1.74 in the data set on HeLa Kyoto [4] (setting [5]) and -0.806 in the data set with HeLa Kyoto [4] (cell cycle stage: mitosis).
For “MAENHAQNKAKLISETRRRFEAEYVTDKSDKYDARDVERLQQDDNWVESYLSWRHNIVDETLKMLDESFQWRKEISVNDLNESSIPRWLLEIGVIYLHGYDKEGNKLFWIRVKYHVKDQKTILDKKKLIAFWLERYAKRENGKPVTVMFDLSETGINSIDMDFVRFIINCFKVYYPKYLSKIVIFDMPWLMNAAFKIVKTWLGPEAVSLLKFTSKNEVQDYVSVEYLPPHMGGTDPFKYSYPPLVDDDFQTPLCENGPITSEDETSSKEDIESDGKETLETISNEEQTPLLKKINPTESTSKAEENEKVDSKVKAFKKPLSVFKGPLLHISPAEELYFGSTESGEKKTLIVLTNVTKNIVAFKVRTTAPEKYRVKPSNSSCDPGASVDIVVSPHGGLTVSAQDRFLIMAAEMEQSSGTGPAELTQFWKEVPRNKVMEHRLRCHTVESSKPNTLTLKDNAFNMSDKTSEDICLQLSRLLESNRKLEDQVQRCIWFQQLLLSLTMLLLAFVTSFFYLLYS [MOSPD2]”, in the data set with HeLa Kyoto [1], the “solubility in G1/S (log2)” value was -0.0365. Moreover, the melting temperature in the data set with HeLa Kyoto [2] (cell cycle stage: G1/S) and in the data set with HeLa Kyoto [2] (cell cycle stage: mitosis) was 51.4 °C in each case. In addition, the “solubility change mitosis (log2)” value with HeLa Kyoto [3] is -0.115. In addition, the thermal stability score in the data set with HeLa Kyoto [4] (setting [5]) came out at 1.72; in the data set with HeLa Kyoto [4] (cell cycle stage: mitosis), 0.81.
As to “MAENTEGDLNSNLLHAPYHTGDPQLDTAIGQWLRWDKNPKTKEQIENLLRNGMNKELRDRLCCRMTFGTAGLRSAMGAGFCYINDLTVIQSTQGMYKYLERCFSDFKQRGFVVGYDTRGQVTSSCSSQRLAKLTAAVLLAKDVPVYLFSRYVPTPFVPYAVQKLKAVAGVMITASHNRKEDNGYKVYWETGAQITSPHDKEILKCIEECVEPWNGSWNDNLVDTSPLKRDPLQDICRRYMEDLKKICFYRELNSKTTLKFVHTSFHGVGHDYVQLAFKVFGFKPPIPVPEQKDPDPDFSTVKCPNPEEGESVLELSLRLAEKENARVVLATDPDADRLAAAELQENGCWKVFTGNELAALFGWWMFDCWKKNKSRNADVKNVYMLATTVSSKILKAIALKEGFHFEETLPGFKWIGSRIIDLLENGKEVLFAFEESIGFLCGTSVLDKDGVSAAVVVAEMASYLETMNITLKQQLVKVYEKYGYHISKTSYFLCYEPPTIKSIFERLRNFDSPKEYPKFCGTFAILHVRDVTTGYDSSQPNKKSVLPVSKNSQMITFTFQNGCVATLRTSGTEPKIKYYAEMCASPDQSDTALLEEELKKLIDALIENFLQPSKNGLIWRSV [PGM2L1]”, the “solubility in G1/S (log2)” value in the data set with HeLa Kyoto [1] came to 0.0482. For the same sequence, the figures for the melting temperature in the data set with HeLa Kyoto [2] (cell cycle stage: G1/S) and with HeLa Kyoto [2] (cell cycle stage: mitosis) were 53.4 °C and 54.2 °C, respectively. In addition, the “solubility change mitosis (log2)” value in the data set with HeLa Kyoto [3] was -0.173. Moreover, the thermal stability score in the data set on HeLa Kyoto [4] (setting [5]) is 0.325; in the data set on HeLa Kyoto [4] (cell cycle stage: mitosis) it was -0.133.
For “MAEPSAPESKHKSSLNSSPWSGLMALGNSRHGHHGPGAQCAHKAAGGAAPPKPAPAGLSGGLSQPAGWQSLLSFTILFLAWLAGFSSRLFAVIRFESIIHEFDPWFNYRSTHHLASHGFYEFLNWFDERAWYPLGRIVGGTVYPGLMITAGLIHWILNTLNITVHIRDVCVFLAPTFSGLTSISTFLLTRELWNQGAGLLAACFIAIVPGYISRSVAGSFDNEGIAIFALQFTYYLWVKSVKTGSVFWTMCCCLSYFYMVSAWGGYVFIINLIPLHVFVLLLMQRYSKRVYIAYSTFYIVGLILSMQIPFVGFQPIRTSEHMAAAGVFALLQAYAFLQYLRDRLTKQEFQTLFFLGVSLAAGAVFLSVIYLTYTGYIAPWSGRFYSLWDTGYAKIHIPIIASVSEHQPTTWVSFFFDLHILVCTFPAGLWFCIKNINDERVFVALYAISAVYFAGVMVRLMLTLTPVVCMLSAIAFSNVFEHYLGDDMKRENPPVEDSSDEDDKRNQGNLYDKAGKVRKHATEQEKTEEGLGPNIKSIVTMLMLMLLMMFAVHCTWVTSNAYSSPSVVLASYNHDGTRNILDDFREAYFWLRQNTDEHARVMSWWDYGYQIAGMANRTTLVDNNTWNNSHIALVGKAMSSNETAAYKIMRTLDVDYVLVIFGGVIGYSGDDINKFLWMVRIAEGEHPKDIRESDYFTPQGEFRVDKAGSPTLLNCLMYKMSYYRFGEMQLDFRTPPGFDRTRNAEIGNKDIKFKHLEEAFTSEHWLVRIYKVKAPDNRETLDHKPRVTNIFPKQKYLSKKTTKRKRGYIKNKLVFKKGKKISKKTV [STT3B]”, the “solubility in G1/S (log2)” value in the data set on HeLa Kyoto [1] was -0.175. The melting temperature in the data set with HeLa Kyoto [2] (cell cycle stage: G1/S) was 53.8 °C; in the data set with HeLa Kyoto [2] (cell cycle stage: mitosis), 54.2 °C. In addition, the “solubility change mitosis (log2)” value with HeLa Kyoto [3] was -0.0861. For the same sequence, the thermal stability score turned out to be 3.35 in the data set on HeLa Kyoto [4] (setting [5]) and 3.7 in the data set on HeLa Kyoto [4] (cell cycle stage: mitosis).
